# Experimental data: patent US20140242093A1, “METHODS AND COMPOSITIONS FOR MODULATING THE INNATE IMMUNE RESPONSE AND/OR MYOGENESIS IN A MAMMALIAN SUBJECT” (FRED HUTCHINSON CANCER RESEARCH CENTER, priority 2011, published 2014)
# Tested on: control human primary myoblasts
# Experiment: Expression microarray of primary myoblasts transduced with lentivirus carrying DUX4-fl, DUX4-s or GFP
# Method: Primary human myoblasts were collected and cultured as previously described (Snider et al., 2010). Primary myoblasts were maintained at or below 70% confluency for proliferation. For differentiation, cells were allowed to reach 95-100% confluency in growth medium. Once confluency was reached, the cells were changed to differentiation medium (F10 media supplemented with 1% horse serum, 10 μg/mL insulin, and 10 μg/mL transferrin, penicillin/streptomycin) and maintained for 4 days. Human RD cells were grown in DMEM in 10% bovine calf serum (Hyclone) and penicillin/streptomycin. The primary myoblasts were transduced with lentivirus carrying DUX-fl, DUX4- or GFP (MOI=15).
# Expression microarrays were performed on the transduced cells at 24 hours after transduction as follows. […] Samples were analyzed by Illumina Human Whole Genome microarrays. Probe intensities were corrected, normalized, and summarized by the Lumi package of Bioconductor (Du et al., 2008). Differentially expressed genes were identified by the LIMMA package of Bioconductor (Wettenhall and Smyth, 2004). Gene set enrichment analysis (GSEA) was performed using the Bioconductor GOstats package (Falcon and Gentleman, 2007).
molecule,measurement,setting,value
"DUX4-s: short splice form of DUX4 (SEQ ID NO:112), keeps the double-homeobox domains, lacks the C-terminal activation domain (protein, listed as Homo sapiens) MALPTPSDSTLPAEARGRGRRRRLVWTPSQSEALRACFERNPYPGIATRERLAQAIGIPEPRVQIWFQNERSRQLRQHRRESRPWPGRRGPPEGRRKRTAVTGSQTALLLRAFEKDRFPGIAAREELARETGLPESRIQIWFQNRRARHPGQGGRAPAQV",PRAMEF19 expression fc,Refseq NM_001099790.1,−0.03732
same,PRAMEF20 expression fc,Refseq NM_001099852.1,−0.003632
same,PRAMEF14 expression fc,Refseq NM_001099854.1,−0.1694
same,PRAMEF21 expression fc,Refseq NM_001100114.1,−0.06827
same,LOC729384 expression fc,Refseq NM_001105522.1,−0.07068
same,KHDC1L expression fc,Refseq NM_001126063.2,−0.07068
same,CSAG3 expression fc,Refseq NM_001129826.1,0.09074
same,LOC399940 expression fc,Refseq NM_001136118.1,−0.03724
same,LOC440563 expression fc,Refseq NM_001136561.1,0.07051
same,FAM90A7 expression fc,Refseq NM_001136572.1,−0.2137
same,CYCSL1 expression fc,Refseq NR_001561.1,0.3733
same,MGC10997 expression fc,Refseq NR_001565.1,−0.2936
same,FTHL3 expression fc,"Refseq NR_002201.1, cultured human skeletal muscle",0.4498
same,FTHL11 expression fc,"Refseq NR_002204.1, cultured human skeletal muscle",0.6004
same,FTHL12 expression fc,"Refseq NR_002205.1, cultured human skeletal muscle",0.3871
same,RPPH1 expression fc,Refseq NR_002312.1,0.2269
same,RFPL1S expression fc,Refseq NR_002727.1,0.1147
same,SNORD56 expression fc,Refseq NR_002739.1,−0.1657
same,fc of TRIM78P (expression array),Refseq NR_002777.2,1.698
same,HNRPA1L-2 expression fc,Refseq NR_002944.2,−0.898
same,RMRP expression fc,Refseq NR_003051.2,0.07334
same,fc of LOC400759 (expression array),Refseq NR_003133.1,1.032
same,HNRPDL expression fc,Refseq NR_003249.1,0.01689
same,SDHALP1 expression fc,Refseq NR_003264.1,0.1225
same,RN5S9 expression fc,Refseq NR_023371.1,0.7616
same,KIAA0114 expression fc,Refseq NR_024031.1,−0.316
same,NCRNA00092 expression fc,Refseq NR_024129.1,−0.1123
same,MIR503 expression fc,Refseq NR_030228.1,−0.1361
same,MIR2278 expression fc,Refseq NR_031755.1,0.09768
same,USP41 fc,Refseq XM_036729.5,0.5246
same,TRIM64 expression fc,Refseq XM_061890.11,−0.174
same,LOC136157 expression fc,Refseq XM_069743.3,0.05271
same,LOC196120 expression fc,Refseq XM_114987.3,0.05191
same,LOC646066 expression fc,Refseq XM_116384.2,−0.02686
same,LOC284428 expression fc,Refseq XM_208203.5,−0.09941
same,LOC285697 expression fc,Refseq XM_210642.1,−0.06561
same,LOC342934 expression fc,Refseq XM_292724.5,−0.06005
same,LOC340096 expression fc,Refseq XM_293943.2,−0.07893
same,LOC389633 expression fc,Refseq XM_372030.4,−0.0852
same,LOC390031 expression fc,Refseq XM_372343.1,−0.1097
same,LOC390530 fc,Refseq XM_372543.2,0.1083
same,LOC391045 expression fc,Refseq XM_372780.3,0.3531
same,LOC391092 expression fc,Refseq XM_372792.2,0.1107
same,LOC391742 expression fc,Refseq XM_373056.1,0.1596
same,LOC391747 expression fc,Refseq XM_373059.2,−0.1049
same,LOC391761 expression fc,Refseq XM_373073.2,−0.05894
same,LOC391764 expression fc,Refseq XM_373076.3,0.1211
same,LOC391766 expression fc,Refseq XM_373077.2,−0.05537
same,LOC391767 expression fc,Refseq XM_373078.1,0.05542
same,LOC399937 expression fc,Refseq XM_374917.3,0.0007914
same,LOC399939 expression fc,Refseq XM_374919.3,−0.06731
same,LOC401860 expression fc,Refseq XM_377445.3,−0.1342
same,LOC402199 expression fc,Refseq XM_377875.2,0.0817
same,LOC646103 expression fc,Refseq XM_377879.3,−0.1387
same,LOC402207 expression fc,Refseq XM_377884.2,−0.01834
same,LOC440040 expression fc,Refseq XM_495873.4,0.08128
same,FAM90A9 expression fc,Refseq XM_496956.4,0.01693
same,FAM90A12 expression fc,Refseq XM_496961.3,0.04824
same,LOC441584 expression fc,Refseq XM_497258.1,−0.1442
same,LOC441019 expression fc,"Refseq XM_498969.2, cultured human skeletal muscle",0.2625
same,PEG10 expression fc,Refseq XM_499343.2,−0.09718
same,LOC642362 expression fc,Refseq XM_925891.1,−0.0147
same,LOC642538 expression fc,Refseq XM_926027.2,0.1258
same,LOC653111 expression fc,Refseq XM_926073.2,−0.09966
same,LOC642843 expression fc,Refseq XM_926241.2,−0.05848
same,LOC653192 expression fc,Refseq XM_926437.2,−0.03932
same,LOC653194 expression fc,Refseq XM_926449.1,−0.01762
same,LOC643731 expression fc,Refseq XM_927019.1,−0.0009314
same,LOC653506 fc,Refseq XM_927769.1,0.01748
same,LOC645137 expression fc,Refseq XM_928167.2,−0.1524
same,fc of LOC653583 (expression array),Refseq XM_928224.2,0.1005
same,LOC645373 expression fc,Refseq XM_928412.1,−0.06602
same,LOC645558 expression fc,Refseq XM_928577.2,−0.04868
same,LOC645669 expression fc,Refseq XM_928680.1,0.08754
same,LOC653656 expression fc,Refseq XM_928688.3,−0.1419
same,LOC653657 expression fc,Refseq XM_928697.2,0.186
same,LOC646698 expression fc,Refseq XM_929644.2,0.1105
same,LOC646754 expression fc,Refseq XM_929704.2,−0.1486
same,LOC646914 expression fc,Refseq XM_929877.1,−0.02473
same,fc of LOC338758 (expression array),Refseq XM_931359.2,−0.07166
same,LOC644739 fc,Refseq XM_933679.1,−0.07399
same,LOC642127 expression fc,Refseq XM_936272.2,0.04199
same,LOC642219 expression fc,Refseq XM_936370.2,4.39E−05
same,LOC285299 expression fc,Refseq XM_936463.2,−0.03458
same,fc of BEXL1 (expression array),Refseq XM_936467.2,−0.1528
same,LOC653978 expression fc,Refseq XM_937424.1,0.1928
same,LOC646508 expression fc,Refseq XM_937570.1,−0.04201
same,LOC648533 expression fc,Refseq XM_937587.1,0.03736
same,LOC342933 expression fc,Refseq XM_938208.2,−0.1021
same,PRAMEF17 expression fc,Refseq XM_938420.2,0.1008
same,fc of LOC649425 (expression array),Refseq XM_938508.1,2.539
same,LOC649563 expression fc,Refseq XM_938635.2,−0.06114
same,LOC650167 expression fc,Refseq XM_939249.1,0.04811
same,LOC654101 expression fc,Refseq XM_939354.1,0.09479
same,MGC61598 expression fc,Refseq XM_939432.1,0.09581
same,LOC651308 expression fc,Refseq XM_940443.1,0.03906
same,ZC3H5 fc,Refseq XM_940903.2,0.09652
same,LOC651816 expression fc,Refseq XM_941060.1,−0.5388
same,LOC652080 expression fc,Refseq XM_941404.1,0.1734
same,LOC652349 expression fc,Refseq XM_941777.1,0.01696
same,LOC652433 expression fc,Refseq XM_941875.1,−0.03197
same,LOC651390 expression fc,Refseq XM_942401.1,−0.07746
same,LOC727846 expression fc,Refseq XM_001126140.1,0.003662
same,LOC730278 fc,Refseq XM_001126471.1,0.1899
same,PARP10 expression fc,"Refseq XM_001127571.1, cultured human skeletal muscle",0.5424
same,fc of LOC730996 (expression array),Refseq XM_001128017.1,1.049
same,LOC342900 expression fc,Refseq XM_001129035.1,0.1315
same,LOC729368 expression fc,Refseq XM_001130065.2,−0.06002
same,LOC729458 expression fc,Refseq XM_001130308.2,0.008126
same,LOC729694 expression fc,Refseq XM_001131061.1,−0.1655
same,LOC729698 expression fc,Refseq XM_001131072.1,−0.06572
same,LOC729700 expression fc,Refseq XM_001131081.1,−0.184
same,LOC729706 expression fc,Refseq XM_001131091.1,−0.01626
same,LOC729724 expression fc,Refseq XM_001131132.1,0.1112
same,LOC729731 expression fc,Refseq XM_001131140.1,0.09881
same,LOC728450 expression fc,Refseq XM_001131473.2,0.1347
same,RFNG fc,Refseq XM_001132711.1,−0.2183
same,LOC732416 expression fc,Refseq XM_001133386.1,0.05578
same,THOC4 expression fc,Refseq XM_001134346.1,−0.1896
same,PRAMEF15 expression fc,Refseq XM_001713659.1,−0.05867
same,LOC100131392 expression fc,Refseq XM_001713681.1,−0.007104
same,LOC100132564 expression fc,Refseq XM_001713808.1,0.401
same,LOC391769 expression fc,Refseq XM_001713901.1,0.152
same,PRAMEF13 expression fc,Refseq XM_001713933.1,0.1179
same,PRAMEF11 expression fc,Refseq XM_001714028.1,0.1217
same,fc of LOC285296 (expression array),Refseq XM_001714301.1,0.8246
same,LOC100133588 expression fc,Refseq XM_001714755.1,0.03978
same,CTGLF7 expression fc,Refseq XM_001714786.1,−0.2949
same,LOC100129630 expression fc,Refseq XM_001714940.1,−0.1038
same,LOC391763 expression fc,Refseq XM_001715080.1,0.09287
same,LOC642446 expression fc,Refseq XM_001717781.1,0.1879
same,LOC100133446 expression fc,Refseq XM_001717965.1,0.1161
same,LOC100129165 fc,Refseq XM_001718314.1,0.2245
same,LOC643336 expression fc,Refseq XM_001718563.1,1.023
same,LOC100129053 expression fc,Refseq XM_001718702.1,0.09951
same,LOC100130652 expression fc,Refseq XM_001719052.1,0.105
same,RFPL4A expression fc,Refseq XM_001719234.1,−0.09032
same,LOC728809 fc,Refseq XM_001719546.1,0.02213
same,LOC100134199 expression fc,Refseq XM_001719549.1,0.03252
